Assay results published in US20170121381A1 (RAMOT AT TEL AVIV UNIVERSITY, published 2017).

Target: T1, purified active human caspase-6 (human, UniProt P55212 24-179; P55212 194-293, limits assumed)
T1 sequence (looked up) 1: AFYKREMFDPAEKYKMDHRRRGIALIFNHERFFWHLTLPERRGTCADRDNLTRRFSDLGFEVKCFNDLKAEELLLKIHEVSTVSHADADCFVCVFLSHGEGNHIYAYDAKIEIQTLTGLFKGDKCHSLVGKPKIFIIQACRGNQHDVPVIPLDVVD
T1 sequence (looked up) 2: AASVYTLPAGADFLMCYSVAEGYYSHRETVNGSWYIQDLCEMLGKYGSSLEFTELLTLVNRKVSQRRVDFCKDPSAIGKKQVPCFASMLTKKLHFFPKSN
Assay: cell-based or functional assay

## GRKKRRQRRRPPQSSEIVLDGTDN [ED11]
  Km of Michaelis-Menten curve, Caspase-Glo 6 assay with Z-VEID-aminoluciferin, 10 uM ED11: 3.3 fold
